# Reference: patent US20130040894A1, “INHIBITION OR ACTIVATION OF SERINE/THREONINE ULK3 KINASE ACTIVITY” (TALLINN UNIVERSITY OF TECHNOLOGY, priority 2009, published 2013)
# B1: FLAG-tagged wild-type ULK3 (human serine/threonine kinase ULK3) (protein)
# chain: MAGPGWGPPRLDGFILTERLGSGTYATVYKAYAKKDTREVVAIKCVAKKSLNKASVENLLTEIEILKGIRHPHIVQLKDFQWDSDNIYLIMEFCAGGDLSRFIHTRRILPEKVARVFMQQLASALQFLHERNISHLDLKPQNILLSSLEKPHLKLADFGFAQHMSPWDEKHVLRGSPLYMAPEMVCQRQYDARVDLWSMGVILYEALFGQPPFASRSFSELEEKIRSNRVIELPLRPLLSRDCRDLLQRLLERDPSRRISFQDFFAHPWVDLEHMPSGESLGRATALVVQAVKKDQEGDSAAALSLYCKALDFFVPALHYEVDAQRKEAIKAKVGQYVSRAEELKAIVSSSNQALLRQGTSARDLLREMARDKPRLLAALEVASAAMAKEEAAGGEQDALDLYQHSLGELLLLLAAEPPGRRRELLHTEVQNLMARAEYLKEQVKMRESRWEADTLDKEGLSESVRSSCTLQ
# Assays:
# [1] = target: T1, FLAG-tagged GLI1 (full length)
# T1 chain: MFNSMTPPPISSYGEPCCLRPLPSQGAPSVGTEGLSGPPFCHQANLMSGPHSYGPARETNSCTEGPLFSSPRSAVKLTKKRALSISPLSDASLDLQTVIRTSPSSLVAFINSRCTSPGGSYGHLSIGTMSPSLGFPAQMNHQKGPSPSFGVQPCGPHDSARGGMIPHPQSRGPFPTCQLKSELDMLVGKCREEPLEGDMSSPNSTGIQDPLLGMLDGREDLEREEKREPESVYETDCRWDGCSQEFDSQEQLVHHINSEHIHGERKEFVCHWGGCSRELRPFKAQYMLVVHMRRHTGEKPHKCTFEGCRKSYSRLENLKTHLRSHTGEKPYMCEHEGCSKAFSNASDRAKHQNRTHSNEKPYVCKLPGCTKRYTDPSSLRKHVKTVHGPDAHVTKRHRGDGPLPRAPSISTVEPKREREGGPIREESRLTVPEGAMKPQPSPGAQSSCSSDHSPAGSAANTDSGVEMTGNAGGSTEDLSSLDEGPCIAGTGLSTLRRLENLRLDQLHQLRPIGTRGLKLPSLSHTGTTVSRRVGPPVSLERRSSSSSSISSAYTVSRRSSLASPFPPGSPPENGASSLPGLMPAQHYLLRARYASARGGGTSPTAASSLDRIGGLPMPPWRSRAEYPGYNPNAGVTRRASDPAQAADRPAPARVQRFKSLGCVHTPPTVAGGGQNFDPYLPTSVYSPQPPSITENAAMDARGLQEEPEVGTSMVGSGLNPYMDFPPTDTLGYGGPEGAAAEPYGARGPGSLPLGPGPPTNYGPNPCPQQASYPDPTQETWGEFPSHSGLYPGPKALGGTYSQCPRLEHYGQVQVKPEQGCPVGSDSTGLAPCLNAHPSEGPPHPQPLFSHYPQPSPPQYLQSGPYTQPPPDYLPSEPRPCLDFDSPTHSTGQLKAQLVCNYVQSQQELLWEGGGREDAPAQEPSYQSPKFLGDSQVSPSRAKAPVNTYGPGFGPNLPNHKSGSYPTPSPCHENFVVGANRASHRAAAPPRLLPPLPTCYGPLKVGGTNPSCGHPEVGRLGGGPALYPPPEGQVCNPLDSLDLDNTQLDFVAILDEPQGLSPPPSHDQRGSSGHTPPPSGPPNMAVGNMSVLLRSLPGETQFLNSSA
# [2] = target: T2, His-tagged GLI1 fragment, amino acids 1-433
# T2 chain: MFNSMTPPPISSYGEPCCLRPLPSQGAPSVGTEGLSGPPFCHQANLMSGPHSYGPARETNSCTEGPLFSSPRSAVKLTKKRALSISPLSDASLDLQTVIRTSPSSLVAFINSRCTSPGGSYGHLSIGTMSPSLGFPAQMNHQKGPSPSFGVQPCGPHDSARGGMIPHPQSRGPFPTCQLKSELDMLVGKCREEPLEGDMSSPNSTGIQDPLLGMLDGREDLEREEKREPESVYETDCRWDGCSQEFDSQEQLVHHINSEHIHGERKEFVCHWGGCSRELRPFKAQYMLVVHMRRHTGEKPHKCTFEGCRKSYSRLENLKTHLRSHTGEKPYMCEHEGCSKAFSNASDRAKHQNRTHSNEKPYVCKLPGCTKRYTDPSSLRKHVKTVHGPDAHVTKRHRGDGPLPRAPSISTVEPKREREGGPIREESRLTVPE
# [3] = target: T3, His-tagged GLI1 fragment, amino acids 426-754
# T3 chain: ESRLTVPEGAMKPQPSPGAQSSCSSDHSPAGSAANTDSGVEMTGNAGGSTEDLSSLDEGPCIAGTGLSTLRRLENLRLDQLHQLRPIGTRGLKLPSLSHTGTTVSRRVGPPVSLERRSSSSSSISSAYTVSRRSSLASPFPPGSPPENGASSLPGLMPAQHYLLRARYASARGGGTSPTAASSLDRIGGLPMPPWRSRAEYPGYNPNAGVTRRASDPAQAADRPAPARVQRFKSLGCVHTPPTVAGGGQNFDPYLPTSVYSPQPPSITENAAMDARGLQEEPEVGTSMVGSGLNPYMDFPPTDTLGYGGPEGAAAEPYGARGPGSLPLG
# [4] = target: T4, His-tagged GLI1 fragment, amino acids 726-1106
# T4 chain: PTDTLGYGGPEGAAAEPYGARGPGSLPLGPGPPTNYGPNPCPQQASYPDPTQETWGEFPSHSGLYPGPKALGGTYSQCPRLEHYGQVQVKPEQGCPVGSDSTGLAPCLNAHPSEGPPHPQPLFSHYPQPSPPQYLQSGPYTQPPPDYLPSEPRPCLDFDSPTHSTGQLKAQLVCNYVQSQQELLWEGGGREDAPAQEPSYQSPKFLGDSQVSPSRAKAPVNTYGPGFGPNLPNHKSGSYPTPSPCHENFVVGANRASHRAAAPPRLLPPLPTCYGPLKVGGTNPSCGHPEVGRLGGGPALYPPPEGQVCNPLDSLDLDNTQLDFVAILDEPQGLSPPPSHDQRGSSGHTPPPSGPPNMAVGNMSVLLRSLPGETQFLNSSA
protein,measurement,setting,value
B1,"in vitro kinase assay, phosphorylation signal (32P autoradiography)",[1],"GLI1 and GLI3 were also phosphorylated by ULK3, but with significantly lower intensity as compared to GLI2"
same,"in vitro kinase assay, phosphorylation of a His-tagged GLI1 fragment",[2],Two of them-GLI1(1-433) and GLI1(726-1106)-were phosphorylated by ULK3
same,"in vitro kinase assay, phosphorylation of a His-tagged GLI1 fragment",[3],Central part of GLI1 (amino acids 426-754) was not phosphorylated by ULK3
same,"in vitro kinase assay, phosphorylation of a His-tagged GLI1 fragment",[4],Two of them-GLI1(1-433) and GLI1(726-1106)-were phosphorylated by ULK3
